Experimental data reported in article PMC4485566.

Legend:
[1] = target: His79 (UniProt position 85, YIPGTHMAFGG); test: UV-vis; settings: ferric protein implied, His79-mediated alkaline transition
[2] = target: His73 (UniProt position 79, LTNPKHYIPGT); test: UV-vis; settings: ferric protein implied (alkaline transition); cited from earlier work

iso-1-cytochrome c, yWT/K79H variant (Saccharomyces cerevisiae; K79H)
pKa [1]: 6.62 ± 0.08

iso-1-cytochrome c, WT*/K79H variant (Saccharomyces cerevisiae; K72A;K79H;C102S)
pKa ([1]; cited from earlier work): 6.35 ± 0.04

iso-1-cytochrome c, yWT/K73H variant (Saccharomyces cerevisiae; K73H)
pKa [2]: 6.60 ± 0.06
